We go through 44 variants from the Human Domainome abundance scans (Beltran et al. 2025).

First the molecules themselves.
B1: CD2-associated protein, residues 271 to 331; numbered along this chain, Q9Y5K6 (parent)
chain: KEYCRTLFAYEGTNEDELTFKEGEIIHLISKETGEAGWWRGELNGKEGVFPDNFAVQINEL

± gives the uncertainty stated by the source.

In this data set the parent is B1. In words: abundance fitness (aPCA) (normalised: wild type 0, dead -1); higher = more abundant; growth selection in yeast, the domain comes from the species named. The conditions noted are these: Homo sapiens.
On to KEYCRTLFAYEGTNEDELTFKEGEIIHLLSKETGEAGWWRGELNGKEGVFPDNFAVQINEL [I29L], for which the abundance fitness is -0.006 ± 0.053.

For the variant KEYCRTLFAYEGTNEDELTFKEGEIIHLCSKETGEAGWWRGELNGKEGVFPDNFAVQINEL [I29C], the abundance fitness was -0.561 ± 0.22.

Consider KEYCRTLFAYEGTNEDELTFKEGEIIHLMSKETGEAGWWRGELNGKEGVFPDNFAVQINEL [I29M], for which the abundance fitness is -0.185 ± 0.067.

Regarding KEYCRTLFAYEGTNEDELTFKEGEIIHLPSKETGEAGWWRGELNGKEGVFPDNFAVQINEL [I29P], the abundance fitness is -0.524 ± 0.096.

In the case of KEYCRTLFAYEGTNEDELTFKEGEIIHLVSKETGEAGWWRGELNGKEGVFPDNFAVQINEL [I29V], the abundance fitness is -0.047 ± 0.054.

Regarding KEYCRTLFAYEGTNEDELTFKEGEIIHLFSKETGEAGWWRGELNGKEGVFPDNFAVQINEL [I29F], the abundance fitness was -0.628 ± 0.12.

Regarding KEYCRTLFAYEGTNEDELTFKEGEIIHLHSKETGEAGWWRGELNGKEGVFPDNFAVQINEL [I29H], the abundance fitness is -0.56 ± 0.26.

For the variant KEYCRTLFAYEGTNEDELTFKEGEIIHLGSKETGEAGWWRGELNGKEGVFPDNFAVQINEL [I29G], the abundance fitness was -0.713 ± 0.092.

For the variant KEYCRTLFAYEGTNEDELTFKEGEIIHLESKETGEAGWWRGELNGKEGVFPDNFAVQINEL [I29E], the abundance fitness is -0.705 ± 0.11.

Turning to KEYCRTLFAYEGTNEDELTFKEGEIIHLYSKETGEAGWWRGELNGKEGVFPDNFAVQINEL [I29Y], the abundance fitness was -0.755 ± 0.14.

As to KEYCRTLFAYEGTNEDELTFKEGEIIHLKSKETGEAGWWRGELNGKEGVFPDNFAVQINEL [I29K], the abundance fitness is -0.26 ± 0.079.

For KEYCRTLFAYEGTNEDELTFKEGEIIHLNSKETGEAGWWRGELNGKEGVFPDNFAVQINEL [I29N], the abundance fitness was -0.433 ± 0.12.

As to KEYCRTLFAYEGTNEDELTFKEGEIIHLASKETGEAGWWRGELNGKEGVFPDNFAVQINEL [I29A], the abundance fitness is -0.672 ± 0.09.

On to KEYCRTLFAYEGTNEDELTFKEGEIIHLDSKETGEAGWWRGELNGKEGVFPDNFAVQINEL [I29D], for which the abundance fitness is -0.668 ± 0.24.

KEYCRTLFAYEGTNEDELTFKEGEIIHLSSKETGEAGWWRGELNGKEGVFPDNFAVQINEL [I29S]: the abundance fitness was -0.463 ± 0.061.

Turning to KEYCRTLFAYEGTNEDELTFKEGEIIHLQSKETGEAGWWRGELNGKEGVFPDNFAVQINEL [I29Q], the abundance fitness was -0.494 ± 0.097.

For KEYCRTLFAYEGTNEDELTFKEGEIIHLWSKETGEAGWWRGELNGKEGVFPDNFAVQINEL [I29W], the abundance fitness was -1.05 ± 0.18.

In the case of KEYCRTLFAYEGTNEDELTFKEGEIIHLTSKETGEAGWWRGELNGKEGVFPDNFAVQINEL [I29T], the abundance fitness was -0.215 ± 0.07.

Turning to KEYCRTLFAYEGTNEDELTFKEGEIIHLISCETGEAGWWRGELNGKEGVFPDNFAVQINEL [K31C], the abundance fitness was -0.562 ± 0.095.

Take KEYCRTLFAYEGTNEDELTFKEGEIIHLISAETGEAGWWRGELNGKEGVFPDNFAVQINEL [K31A]: the abundance fitness is -0.635 ± 0.11.

Consider KEYCRTLFAYEGTNEDELTFKEGEIIHNISKETGEAGWWRGELNGKEGVFPDNFAVQINEL [L28N], for which the abundance fitness is -0.59 ± 0.11.

As for KEYCRTLFAYEGTNEDELTFKEGEIIHWISKETGEAGWWRGELNGKEGVFPDNFAVQINEL [L28W], the abundance fitness was -0.871 ± 0.11.

In the case of KEYCRTLFAYEGTNEDELTFKEGEIIHYISKETGEAGWWRGELNGKEGVFPDNFAVQINEL [L28Y], the abundance fitness was -0.702 ± 0.16.

Take KEYCRTLFAYEGTNEDELTFKEGEIIHQISKETGEAGWWRGELNGKEGVFPDNFAVQINEL [L28Q]: the abundance fitness was -0.913 ± 0.17.

Regarding KEYCRTLFAYEGTNEDELTFKEGEIIHTISKETGEAGWWRGELNGKEGVFPDNFAVQINEL [L28T], the abundance fitness was -0.441 ± 0.086.

On to KEYCRTLFAYEGTNEDELTFKEGEIIHMISKETGEAGWWRGELNGKEGVFPDNFAVQINEL [L28M], for which the abundance fitness was -0.482 ± 0.073.

Take KEYCRTLFAYEGTNEDELTFKEGEIIHKISKETGEAGWWRGELNGKEGVFPDNFAVQINEL [L28K]: the abundance fitness was -0.503 ± 0.084.

As to KEYCRTLFAYEGTNEDELTFKEGEIIHRISKETGEAGWWRGELNGKEGVFPDNFAVQINEL [L28R], the abundance fitness was -0.706 ± 0.064.

Regarding KEYCRTLFAYEGTNEDELTFKEGEIIHPISKETGEAGWWRGELNGKEGVFPDNFAVQINEL [L28P], the abundance fitness is -0.614 ± 0.17.

On to KEYCRTLFAYEGTNEDELTFKEGEIIHSISKETGEAGWWRGELNGKEGVFPDNFAVQINEL [L28S], for which the abundance fitness is -0.712 ± 0.067.

Regarding KEYCRTLFAYEGTNEDELTFKEGEIIHVISKETGEAGWWRGELNGKEGVFPDNFAVQINEL [L28V], the abundance fitness was -0.005 ± 0.077.

Take KEYCRTLFAYEGTNEDELTFKEGEIIHLIPKETGEAGWWRGELNGKEGVFPDNFAVQINEL [S30P]: the abundance fitness was -0.71 ± 0.1.

As to KEYCRTLFAYEGTNEDELTFKEGEIIHLIGKETGEAGWWRGELNGKEGVFPDNFAVQINEL [S30G], the abundance fitness was -0.328 ± 0.057.

Turning to KEYCRTLFAYEGTNEDELTFKEGEIIHLIDKETGEAGWWRGELNGKEGVFPDNFAVQINEL [S30D], the abundance fitness was -0.2 ± 0.12.

On to KEYCRTLFAYEGTNEDELTFKEGEIIHLIRKETGEAGWWRGELNGKEGVFPDNFAVQINEL [S30R], for which the abundance fitness is -0.419 ± 0.065.

On to KEYCRTLFAYEGTNEDELTFKEGEIIHLIWKETGEAGWWRGELNGKEGVFPDNFAVQINEL [S30W], for which the abundance fitness is -0.957 ± 0.22.

Consider KEYCRTLFAYEGTNEDELTFKEGEIIHLIAKETGEAGWWRGELNGKEGVFPDNFAVQINEL [S30A], for which the abundance fitness is -0.129 ± 0.053.

Take KEYCRTLFAYEGTNEDELTFKEGEIIHLINKETGEAGWWRGELNGKEGVFPDNFAVQINEL [S30N]: the abundance fitness was -0.152 ± 0.15.

Regarding KEYCRTLFAYEGTNEDELTFKEGEIIHLIQKETGEAGWWRGELNGKEGVFPDNFAVQINEL [S30Q], the abundance fitness was -0.36 ± 0.11.

KEYCRTLFAYEGTNEDELTFKEGEIIHLIVKETGEAGWWRGELNGKEGVFPDNFAVQINEL [S30V]: the abundance fitness is -0.709 ± 0.096.

Regarding KEYCRTLFAYEGTNEDELTFKEGEIIHLICKETGEAGWWRGELNGKEGVFPDNFAVQINEL [S30C], the abundance fitness is -0.365 ± 0.085.

For the variant KEYCRTLFAYEGTNEDELTFKEGEIIHLIFKETGEAGWWRGELNGKEGVFPDNFAVQINEL [S30F], the abundance fitness was -0.967 ± 0.28.

KEYCRTLFAYEGTNEDELTFKEGEIIHLITKETGEAGWWRGELNGKEGVFPDNFAVQINEL [S30T]: the abundance fitness worked out at 0.023 ± 0.062.

On to KEYCRTLFAYEGTNEDELTFKEGEIIHLILKETGEAGWWRGELNGKEGVFPDNFAVQINEL [S30L], for which the abundance fitness was -0.859 ± 0.091.
